± gives the uncertainty stated by the source.
B1: library; numbered along this chain (parent)
chain: MEVVDPQQLGMFTEGELMSVGMDTFIHRIDSTEVIYQPRRKRAKLIGKYLMGDLLGEGSYGKVKEVLDSETLCRRAVKILKKKKLRRIPNGEANVKKEIQLLRRLRHKNVIQLVDVLYNEEKQKMYMVMEYCVCGMQEMLDSVPEKRFPVCQAHGYFCQLIDGLEYLHSQGIVHKDIKPGNLLLTTGGTLKISDLGVAEALHPFAADDTCRTSQGSPAFQPPEIANGLDTFSGFKVDIWSAGVTLYNITTGLYPFEGDNIYKLFENIGKGSYAIPGDCGPPLSDLLKGMLEYEPAKRFSIRQIRQHSWFRKKHPPAEAPVPIPPSPDTKDRWRSMTVVPYLEDLHGADEDEDLFDIEDDIIYTQDFTVPGQVPEEEASHNGQRRGLPKAVCMNGTEAAQLSTKSRAEGRAPNPARKACSASSKIRRLSACKQQ

Variants of: B1
Experiment: STK11 functional score (HeLa growth suppression), rescaled enrichment; synonymous median = 1, nonsense median = 0 (normalised score)
Conditions: with HeLa; variant type: missense
How it was run: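 HeLa cells carrying an AAVS1 landing pad received codon-optimised STK11 libraries made by codon randomisation (POPCode), integrated by Bxb1, with three regions each transfected three times. Integrants that were BFP-negative and mCherry-positive were sorted by FACS 4–5 days after electroporation and then grown for about two weeks. Tiled amplicons from gDNA were sequenced on NextSeq at ~2 million reads per tile. The functional score is a wild-type-corrected log ratio of post- to pre-selection counts, rescaled to the synonymous and nonsense medians, merged across codons and replicate transfections, and given a bootstrapped error.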

Row | Variant | STK11 functional score
1 | P89Q | 1.4 ± 0.12
2 | C418S | 1.51 ± 0.17
3 | C418L | 1.46 ± 0.13
4 | E14L | 1 ± 0.14
5 | Y36L | 1.03 ± 0.23
6 | Y246M | 1.29 ± 0.17
7 | H345C | 1.2 ± 0.49
8 | T249N | 0.652 ± 0.27
9 | T249D | -0.107 ± 0.097
10 | V4E | 1.09 ± 0.6
11 | S271M | 1.5 ± 0.21
12 | S271R | 1.04 ± 0.27
13 | K48T | 1.59 ± 0.29
14 | K48L | 1.3 ± 0.17
15 | I177H | -0.12 ± 0.21
16 | K108S | 0.866 ± 0.22
17 | R42T | 0.779 ± 0.39
18 | D348Y | 0.868 ± 0.53
19 | G10V | 0.971 ± 0.18
20 | K235W | 1.51 ± 0.13
21 | K235L | 1.24 ± 0.18
22 | G188A | 0.938 ± 0.19
23 | G188Y | 1.6 ± 0.23
24 | V3F | 0.991 ± 0.32

Row | Variant | STK11 functional score
25 | F25C | 1.63 ± 0.46
26 | I322N | 1.59 ± 0.44
27 | I322Q | 0.336 ± 0.09
28 | V110I | 0.703 ± 0.64
29 | A414F | 1.38 ± 0.14
30 | A241T | -0.298 ± 0.45
31 | A241P | 0.702 ± 0.45
32 | V243P | -0.157 ± 0.11
33 | R425W | 1.03 ± 0.14
34 | R425S | 1.54 ± 0.39
35 | K44L | 1.36 ± 0.2
36 | D359E | 0.865 ± 0.47
37 | D359V | 1.05 ± 0.17
38 | A377K | 1.63 ± 0.28
39 | A377M | 1.51 ± 0.27
40 | K191I | 1.19 ± 0.51
41 | V368C | 1.58 ± 0.18
42 | V368Q | 0.833 ± 0.5
43 | V368R | 0.87 ± 0.44
44 | H379G | 1.11 ± 0.57
45 | H379P | 1.46 ± 0.23
46 | A200T | 1.02 ± 0.82
47 | A200M | 1.65 ± 0.14
48 | H107P | 0.25 ± 0.083

Row | Variant | STK11 functional score
49 | P411F | 0.906 ± 0.61
50 | P411E | 1.61 ± 0.33
51 | P411R | 0.986 ± 0.35
52 | P411V | 1.62 ± 0.12
53 | G233R | 0.173 ± 0.3
54 | G233F | 1.46 ± 0.31
55 | V114T | 1.43 ± 0.086
56 | V114F | 1.03 ± 0.12
57 | I260W | 1.21 ± 0.38
58 | I161D | -0.303 ± 0.097
59 | Y292P | 1.38 ± 0.19
60 | Y292I | 1.09 ± 0.13
61 | Y292A | 1.15 ± 0.26
62 | Q371D | 1.43 ± 0.11
63 | Q371R | 1.55 ± 0.15
64 | W239T | -0.0973 ± 0.1
65 | V390D | 1.4 ± 0.28
66 | P6W | 0.513 ± 0.074
67 | G346K | 1.61 ± 0.25
68 | G346F | 1.29 ± 0.54
69 | G346V | 0.838 ± 0.7
70 | Q305H | 0.99 ± 0.61
71 | Q305F | 1.51 ± 0.2
72 | G268F | 1.16 ± 0.24

Row | Variant | STK11 functional score
73 | K311S | 0.915 ± 0.3
74 | E396T | 1.08 ± 0.61
75 | L195V | 0.433 ± 0.14
76 | T24F | 1.37 ± 0.11
77 | M139W | 1.27 ± 0.78
78 | K423E | 1.62 ± 0.12
79 | G242T | -0.128 ± 0.097
80 | N226E | 0.0384 ± 0.15
81 | Y131D | 0.0798 ± 0.094
82 | D30P | 1.67 ± 0.17
83 | D30S | 1.7 ± 0.19
84 | S421E | 1.56 ± 0.28
85 | L201S | 0.759 ± 0.098
86 | N380K | 1.42 ± 0.48
87 | N380I | 1.04 ± 0.29
88 | N380H | 1.48 ± 0.38
89 | F219W | 1.49 ± 0.11
90 | F219Y | 1.29 ± 0.54
91 | F219C | 0.557 ± 0.2
92 | T32H | 1.68 ± 0.17
93 | T32R | 1.36 ± 0.36
94 | T395F | 0.847 ± 0.36
95 | G251V | -0.0264 ± 0.098
96 | F354P | 1.42 ± 0.14

Row | Variant | STK11 functional score
97 | T402N | 0.935 ± 0.33
98 | T402M | 1.23 ± 0.11
99 | V95Q | 1.46 ± 0.45
100 | V95S | 1.4 ± 0.18
101 | V95N | 1.6 ± 0.14
102 | Y49F | 1.12 ± 0.3
103 | P294M | 1.13 ± 0.4
104 | P294L | 0.297 ± 0.13
105 | S19R | 0.749 ± 0.093
106 | M18G | 1.36 ± 0.22
107 | M18P | 1.69 ± 0.13
108 | R301A | 1.56 ± 0.16
109 | R147F | 0.668 ± 0.1
110 | R147Q | 0.506 ± 0.12
111 | K62V | 1.61 ± 0.2
112 | S428T | 1.56 ± 0.24
113 | V66C | 1.46 ± 0.32
114 | L285H | -0.443 ± 0.1
115 | C151M | 0.331 ± 0.57
116 | N109I | 0.256 ± 0.084
117 | Q170K | 0.664 ± 0.14
118 | Q170D | -0.0762 ± 0.095
119 | E256Y | 1.4 ± 0.16
120 | I29L | 1 ± 0.15

Row | Variant | STK11 functional score
121 | M125L | 1 ± 0.14
122 | M125A | 1.14 ± 0.36
123 | M125P | 0.267 ± 0.29
124 | L9H | 1.67 ± 0.15
125 | L9A | 1.28 ± 0.12
126 | R39A | 1.12 ± 0.42
127 | P326E | 1.57 ± 0.26
128 | P326V | 0.813 ± 0.46
129 | P326S | 1.36 ± 0.17
130 | S334P | 1.43 ± 0.18
131 | L245A | 0.101 ± 0.099
132 | I360Y | 1.52 ± 0.2
133 | D350W | 1.6 ± 0.19
134 | G381R | 1.48 ± 0.16
135 | G394L | 1.59 ± 0.25
136 | D343W | 1.55 ± 0.14
137 | A206Q | 1.07 ± 0.092
138 | H313C | 1.26 ± 0.29
139 | P38D | 1.7 ± 0.3
140 | P38V | 1.01 ± 0.095
141 | I267S | 1.16 ± 0.29
142 | L17V | 1.35 ± 0.12
143 | L17M | 0.968 ± 0.24
144 | G279P | 1.17 ± 0.33

Row | Variant | STK11 functional score
145 | P275T | 0.875 ± 0.18
146 | R297I | 0.0965 ± 0.092
147 | N119P | 1.37 ± 0.29
148 | H168E | 1.3 ± 0.24
149 | H168C | 0.168 ± 0.32
150 | L102E | 1.51 ± 0.11
151 | L102S | 0.447 ± 0.3
152 | L164P | -0.0524 ± 0.1
153 | Y60L | 0.748 ± 0.29
154 | D352Y | 0.953 ± 0.14
155 | G385R | 1.13 ± 0.32
156 | A153V | 0.499 ± 0.1
157 | A316S | 0.768 ± 0.23
158 | A316F | 1.19 ± 0.28
159 | R384Q | 1.62 ± 0.32
160 | P319N | 1.48 ± 0.16
161 | F148Q | 0.0904 ± 0.082
162 | F148P | -0.111 ± 0.086
163 | S299A | 1.42 ± 0.15
164 | S299D | 1.18 ± 0.16
165 | I356Y | 1.12 ± 0.18
166 | I424Q | 1.55 ± 0.14
167 | I424G | 0.657 ± 0.18
